Laboratory results reported in paper PMC3726423, “Comparative Study of Two Box H/ACA Ribonucleoprotein Pseudouridine-Synthases: Relation between Conformational Dynamics of the Guide RNA, Enzyme Assembly and Activity” (PLoS ONE, 2013).

T1: aCBF5 (P. abyssi, UniProt Q9V1A5 1-334)
T1 construct: aCBF5, archaeal H/ACA sRNP pseudouridine synthase, P. abyssi; also called pseudouridine synthase aCBF5; source: purified recombinant proteins
T1 sequence (looked up): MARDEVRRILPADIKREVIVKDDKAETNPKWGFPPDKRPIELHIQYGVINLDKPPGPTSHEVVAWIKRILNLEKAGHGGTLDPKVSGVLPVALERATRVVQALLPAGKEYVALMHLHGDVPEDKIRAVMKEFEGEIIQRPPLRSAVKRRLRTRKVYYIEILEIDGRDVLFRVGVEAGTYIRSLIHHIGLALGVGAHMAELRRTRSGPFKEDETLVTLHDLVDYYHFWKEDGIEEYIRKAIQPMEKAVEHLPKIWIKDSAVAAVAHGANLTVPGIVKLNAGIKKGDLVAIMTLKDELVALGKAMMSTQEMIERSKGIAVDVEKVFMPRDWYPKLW


Target: T1, aCBF5
Assay: native gel or EMSA; 32P 5' end-labelled sRNA Pab21 or Pab91 (~50 fmol) incubated with the proteins (200 nM each) in buffer D (150 mM KCl, 1.5 mM MgCl2, 0.2 mM EDTA, 20 mM HEPES pH 7.9) at 65°C for 10 min; non-denaturing polyacrylamide gel; the proteins are seen only through the shift of the labelled sRNA
Details: both partners purified

Row | binding result | Binder
1 | binds | aNOP10 (natural protein, P. abyssi, UniProt Q9V0E3 1-60, looked up, aNOP10, archaeal H/ACA sRNP core protein, P. abyssi; source: purified recombinant proteins) MRFRIRKCPKCGRYTLKETCPVCGEKTKVAHPPRFSPEDPYGEYRRRLKRELLGIGRKEK
2 | binds | aNOP10 Y41A/Y44A (natural protein, P. abyssi, UniProt Q9V0E3 1-60, looked up, aNOP10, P. abyssi, with two alanine substitutions in helix alpha1; also called aNOP10 mutant Y41A/Y44A; source: purified recombinant proteins) MRFRIRKCPKCGRYTLKETCPVCGEKTKVAHPPRFSPEDPAGEARRRLKRELLGIGRKEK
